Test results as given in article PMC12333349, “Endogenous Aquaporin‑0 Lipid Binding in Ocular Lens Tissue via Native Mass Spectrometry” (Journal of the American Society for Mass Spectrometry, 2025).

Target: the molecule itself
Experiment: native MS; crude bovine lens cortex or nucleus membrane preparation, solubilised in 1% OG, exchanged into 200 mM ammonium acetate, 2x CMC C8E4; static nanospray, Q Exactive UHMR; HCD at 200 V fragmented the tetramer mainly into monomers

B1: Aquaporin-0 (natural protein, bovine, UniProt P06624 1-263, looked up)
chain: MWELRSASFWRAICAEFFASLFYVFFGLGASLRWAPGPLHVLQVALAFGLALATLVQAVGHISGAHVNPAVTFAFLVGSQMSLLRAICYMVAQLLGAVAGAAVLYSVTPPAVRGNLALNTLHPGVSVGQATIVEIFLTLQFVLCIFATYDERRNGRLGSVALAVGFSLTLGHLFGMYYTGAGMNPARSFAPAILTRNFTNHWVYWVGPVIGAGLGSLLYDFLLFPRLKSVSERLSILKGSRPSESNGQPEVTGEPVELKTQAL
notes: Aquaporin-0 (AQP0), bovine lens; the most abundant species is full-length AQP0, tetramer average mass 112,898 Da; Lower-abundance singly and doubly phosphorylated tetramers were also detected; Samples were in 200 mM ammonium acetate with 2x CMC C8E4 (residual OG possible); also called AQP0; crude AQP0; source: endogenous, bovine lens cortex and nucleus: crude urea-washed membrane pellets …
  stoichiometry N: 4
